Reference: article PMC7762974, “Recombination and Pol ζ Rescue Defective DNA Replication upon Impaired CMG Helicase—Pol ε Interaction” (International Journal of Molecular Sciences, 2020)

Experiments:
Assay in all cases: pull-down; 2 pmol Halo-Sld5 GINS fixed on 10 µL HaloLink Resin, blocked with casein and BSA; 2 pmol Pol ε with 2 mg/mL BSA in 400 µL 25 mM HEPES-KOH pH 7.6, 200 mM K-acetate, 2 mM Mg-acetate, 10% glycerol, 0.1% Tween 20, 0.01% NP-40, 30 °C for 30 min; blot for Dpb2 and Psf2, band intensity compared to Psf1
[1] = target: GINS complex with the Psf1-1 mutant subunit (R84G), Psf2, Psf3, Halotag-Sld5 (S. cerevisiae) (UniProt Q12488)
[2] = target: GINS complex with the Psf1-100 mutant subunit (V161A, F162A, I163A, D164A), Psf2, Psf3, Halotag-Sld5 (S. cerevisiae) (UniProt Q12488)
[3] = target: T1, DNA polymerase epsilon (Pol ε) comprising Pol2, Dpb2, Dpb3 and Dpb4 subunits (S. cerevisiae, UniProt P21951 1-2222; P24482 1-689; P27344 1-201; Q04603 1-196); conditions: both partners purified
T1 construct: Pol2, catalytic subunit of DNA polymerase epsilon, S. cerevisiae; Dpb2, noncatalytic subunit of DNA polymerase epsilon, S. cerevisiae; Dpb3, noncatalytic subunit of DNA polymerase epsilon, S. cerevisiae; Dpb4, noncatalytic subunit of DNA polymerase epsilon, S. cerevisiae; source: purified as described previously [40]; copies: + + +
T1 sequence (P21951 whole entry, chain 1 of 4): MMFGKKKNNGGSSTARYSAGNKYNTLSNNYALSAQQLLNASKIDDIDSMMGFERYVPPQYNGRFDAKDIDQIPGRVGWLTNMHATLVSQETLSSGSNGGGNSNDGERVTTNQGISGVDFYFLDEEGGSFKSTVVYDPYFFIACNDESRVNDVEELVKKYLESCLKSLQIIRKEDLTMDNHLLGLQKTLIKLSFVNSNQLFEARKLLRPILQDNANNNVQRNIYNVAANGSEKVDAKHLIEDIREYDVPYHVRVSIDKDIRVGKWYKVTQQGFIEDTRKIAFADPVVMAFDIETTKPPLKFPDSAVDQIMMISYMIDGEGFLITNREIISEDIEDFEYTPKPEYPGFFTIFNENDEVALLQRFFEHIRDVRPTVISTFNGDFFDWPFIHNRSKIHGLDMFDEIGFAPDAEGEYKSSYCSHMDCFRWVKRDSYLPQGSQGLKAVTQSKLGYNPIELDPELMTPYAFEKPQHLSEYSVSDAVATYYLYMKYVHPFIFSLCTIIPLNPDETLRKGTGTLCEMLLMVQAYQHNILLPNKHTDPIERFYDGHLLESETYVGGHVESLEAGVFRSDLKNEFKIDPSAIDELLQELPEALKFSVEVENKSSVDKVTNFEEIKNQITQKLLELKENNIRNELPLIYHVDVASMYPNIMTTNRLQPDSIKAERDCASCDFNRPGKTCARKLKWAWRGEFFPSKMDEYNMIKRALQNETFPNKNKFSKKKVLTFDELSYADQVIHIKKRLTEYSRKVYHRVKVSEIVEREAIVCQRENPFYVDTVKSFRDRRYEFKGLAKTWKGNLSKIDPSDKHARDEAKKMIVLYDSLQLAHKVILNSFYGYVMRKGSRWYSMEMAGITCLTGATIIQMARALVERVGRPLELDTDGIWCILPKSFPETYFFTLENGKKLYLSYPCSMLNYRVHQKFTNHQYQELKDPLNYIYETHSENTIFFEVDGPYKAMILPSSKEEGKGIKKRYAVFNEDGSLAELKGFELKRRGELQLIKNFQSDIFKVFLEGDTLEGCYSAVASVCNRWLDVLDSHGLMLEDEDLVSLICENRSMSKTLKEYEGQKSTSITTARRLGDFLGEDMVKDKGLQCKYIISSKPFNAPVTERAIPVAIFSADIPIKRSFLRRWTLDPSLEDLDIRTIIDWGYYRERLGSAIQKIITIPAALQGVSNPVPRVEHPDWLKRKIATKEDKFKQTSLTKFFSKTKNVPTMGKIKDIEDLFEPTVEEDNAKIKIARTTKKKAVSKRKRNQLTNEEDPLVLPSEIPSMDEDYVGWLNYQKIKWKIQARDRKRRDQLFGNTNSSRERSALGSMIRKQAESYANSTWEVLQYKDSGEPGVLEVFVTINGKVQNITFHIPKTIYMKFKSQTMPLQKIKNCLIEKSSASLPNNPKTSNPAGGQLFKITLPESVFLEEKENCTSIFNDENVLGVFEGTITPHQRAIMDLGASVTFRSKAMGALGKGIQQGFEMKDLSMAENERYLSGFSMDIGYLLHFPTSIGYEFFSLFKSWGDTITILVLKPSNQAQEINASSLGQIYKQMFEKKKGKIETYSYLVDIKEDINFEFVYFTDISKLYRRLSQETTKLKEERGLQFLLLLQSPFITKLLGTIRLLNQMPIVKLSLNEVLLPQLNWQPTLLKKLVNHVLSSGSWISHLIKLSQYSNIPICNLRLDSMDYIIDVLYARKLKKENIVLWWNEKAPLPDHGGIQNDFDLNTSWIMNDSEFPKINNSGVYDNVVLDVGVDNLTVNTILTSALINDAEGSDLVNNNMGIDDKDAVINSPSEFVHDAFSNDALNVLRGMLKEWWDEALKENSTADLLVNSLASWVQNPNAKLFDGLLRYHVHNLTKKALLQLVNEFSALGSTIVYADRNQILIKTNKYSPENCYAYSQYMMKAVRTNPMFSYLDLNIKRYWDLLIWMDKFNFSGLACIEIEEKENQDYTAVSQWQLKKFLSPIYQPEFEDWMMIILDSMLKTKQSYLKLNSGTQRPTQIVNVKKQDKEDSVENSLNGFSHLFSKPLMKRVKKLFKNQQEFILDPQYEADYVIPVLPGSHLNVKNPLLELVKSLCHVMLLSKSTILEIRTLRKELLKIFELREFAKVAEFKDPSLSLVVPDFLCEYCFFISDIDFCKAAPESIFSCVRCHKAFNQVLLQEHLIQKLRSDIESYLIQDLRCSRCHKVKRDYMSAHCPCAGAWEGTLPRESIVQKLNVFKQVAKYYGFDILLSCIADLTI
T1 sequence (P24482 whole entry, chain 2 of 4): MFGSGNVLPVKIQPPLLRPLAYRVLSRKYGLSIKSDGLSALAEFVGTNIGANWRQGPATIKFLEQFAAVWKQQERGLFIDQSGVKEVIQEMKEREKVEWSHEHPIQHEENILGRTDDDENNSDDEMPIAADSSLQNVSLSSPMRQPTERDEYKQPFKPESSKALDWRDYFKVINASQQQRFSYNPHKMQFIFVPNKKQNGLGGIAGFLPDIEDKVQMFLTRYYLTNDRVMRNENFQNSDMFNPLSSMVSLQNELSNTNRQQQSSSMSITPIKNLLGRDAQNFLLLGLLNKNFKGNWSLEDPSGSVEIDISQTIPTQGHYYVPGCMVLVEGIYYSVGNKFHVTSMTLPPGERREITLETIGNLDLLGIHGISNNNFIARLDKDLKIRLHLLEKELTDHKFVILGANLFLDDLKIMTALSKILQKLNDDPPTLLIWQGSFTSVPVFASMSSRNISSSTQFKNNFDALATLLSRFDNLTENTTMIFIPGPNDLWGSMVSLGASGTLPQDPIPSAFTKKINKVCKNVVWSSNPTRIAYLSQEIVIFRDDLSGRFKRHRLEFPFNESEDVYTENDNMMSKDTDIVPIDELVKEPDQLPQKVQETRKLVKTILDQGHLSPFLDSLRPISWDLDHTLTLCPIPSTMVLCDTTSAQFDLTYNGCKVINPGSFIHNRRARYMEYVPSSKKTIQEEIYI
T1 sequence (P27344 whole entry, chain 3 of 4): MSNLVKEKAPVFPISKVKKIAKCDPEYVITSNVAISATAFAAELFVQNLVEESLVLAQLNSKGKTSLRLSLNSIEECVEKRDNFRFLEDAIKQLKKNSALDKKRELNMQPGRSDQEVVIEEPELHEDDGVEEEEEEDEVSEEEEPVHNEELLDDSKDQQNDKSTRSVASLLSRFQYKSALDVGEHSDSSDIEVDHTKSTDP
T1 sequence (Q04603 whole entry, chain 4 of 4): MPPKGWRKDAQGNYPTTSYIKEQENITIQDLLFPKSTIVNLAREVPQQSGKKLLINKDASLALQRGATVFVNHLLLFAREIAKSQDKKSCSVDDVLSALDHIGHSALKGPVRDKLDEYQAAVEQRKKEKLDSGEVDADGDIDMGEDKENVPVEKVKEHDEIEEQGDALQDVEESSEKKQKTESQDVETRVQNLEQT

band intensity compared to Psf1 (relative to Psf1) [1]	band intensity compared to Psf1 (relative to Psf1) [2]	binding result [3]	Molecule
0.96	0.31		DNA polymerase epsilon (Pol ε) comprising Pol2, Dpb2, Dpb3 and Dpb4 subunits, P21951 1-2222; P24482 1-689; P27344 1-201; Q04603 1-196
		binds	GINS complex (Psf1, Psf2, Psf3, Halotag-Sld5), wild type (complex, S. cerevisiae, Psf1 subunit of GINS, S. cerevisiae; Psf2 subunit of GINS, S. cerevisiae; Psf3 subunit of GINS, S. cerevisiae; Sld5 subunit of GINS, S. cerevisiae; also called GINS_(Psf1); WT; source: purified as described previously [40]; copies: + + +) chain 1: MYGDLGNKLVLEAKRTKQLYARSNQDVNLPMYHEDIIRNILKEVSNLRKNTEYLKEQQQLGMLDDKVAKCQYFVTLLCMERNKRCLLAYQRLRTDILDSMAWNNNGLDLMSSITFSQQDTNNLSHQEQEYLKEYCDLITDLKSGDLVDIDLSGSLVPPSDVFIDVRVLKDAGEIQTEYGVFNLIKDSQFFVRQSDVERLIQQGYLQKI chain 2: MSLPAHLQQTFSPEEIQFIVENEPIKIFPRITTRQKIRGDDRGTGNHTRWQLITTDDKALNNMVAMRSTEVVLWIALLLKQQSKCSIVAPQWLTTKELDRKIQYEKTHPDRFSELPWNWLVLARILFNKAKDDFHDPIHELRGKIQDLREIRQIKVLKGLKYLNESHLQLDNLSLLEINELRPFITEIMDKLREIHTASLTAGTENDEEEFNI chain 3: MGYYDIDDVLADGTEFPCKFQYDIPGLGYLENNPGRPITKNTKLSLPLWLARILAIVGGDEALVDEEPVPFVELLPPDMFSTKVMNAIKTDPVALDLHSINSHFFSLAIKWIMLFSEKELANVVSELLLQRAQELNHHASSLSIDLNADSTGKNSANTNIATSTFLLKLEEMEKEIYKKSHESYKDTKRWMFKK chain 4: MDINIDDILAELDKETTAVDSTKITQGSSSTTHRDANTIVGSSLDLNDKTQIYVSPQQDFSDLMKSWKNERCSPELLPYPHQLMKRLLNRISMQSQLIENISMGFLDMQNASNANPPMPNESKLPLLCMETELERLKFVIRSYIRCRLSKIDKFSLYLRQLNEDENSLISLTDLLSKDEIKYHDTHSLIWLKLVNDSILKYMPEELQAINDTEGSVNMIDEPDWNKFVFIHVNGPPDGKWNEDPLLQENEFGKPCYTVTIPDLKEEVELTIGSIYVMRYEVIRDLLRDDKVALI
